# From patent US10160948B2, “Pluripotent embryonic-like stem cells, compositions, methods and uses thereof” (ABT HOLDING COMPANY, priority 1999, dated 2018)
# B1: PDECGF: Platelet-derived endothelial cell growth factor (protein, UniProt P19971 11-482, looked up)
# Thymidine phosphorylase: APPAPGDFSGEGSQGLPDPSPEPKQLPELIRMKRDGGRLSEADIRGFVAAVVNGSAQGAQIGAMLMAIRLRGMDLEETSVLTQALAQSGQQLEWPEAWRQQLVDKHSTGGVGDKVSLVLAPALAACGCKVPMISGRGLGHTGGTLDKLESIPGFNVIQSPEQMQVLLDQAGCCIVGQSEQLVPADGILYAARDVTATVDSLPLITASILSKKLVEGLSALVVDVKFGGAAVFPNQEQARELAKTLVGVGASLGLRVAAALTAMDKPLGRCVGHALEVEEALLCMDGAGPPDLRDLVTTLGGALLWLSGHAGTQAQGAARVAAALDDGSALGRFERMLAAQGVDPGLARALCSGSPAERRQLLPRAREQEELLAPADGTVELVRALPLALVLHELGAGRSRAGEPLRLGVGAELLVDVGQRLRRGTPWLRVHRDGPALSGPQSRALQEALVLSDRAPFAAPSPFAELVLPPQQ
# Legend:
# pluripotent stem cells = test: Proliferation and phenotypic responses to bioactive factors: pluripotent cells; format: cell-based
# Excerpt: (§1) Having access to mixed populations of progenitor stem cells, progenitor stem cell clones, and pluripotent stem cell clones permits one to address the influence of various bioactive factors (e.g. recombinant growth factors, purified compounds, and novel inductive factors) on the growth characteristics and phenotypic expression of these stem cells.
# Cryopreserved cells are thawed and plated in MSC-1 at 5, 10, or 20×10^3 cells per well of gelatinized 24-well plates following the standard protocol. Twenty-four hours after initial plating the medium is changed to testing medium (TM) 1 to 6 (TM-1, TM-2, TM-3, TM-4, TM-5, or TM-6). TM-1 to TM-4 consist of Ultraculture (cat. no. 12-725B, lot. nos. OMO455 [TM-1], 1M1724 [TM-2], 2M0420 [TM-3], or 2M0274 [TM-4], Bio-Whittaker, Walkersville, Md.), medium (EMEM or Opti-MEM 0.01 mM β-mercaptoethanol), and 1% (v/v) antibiotic-antimycotic, pH 7.4. TM-5 consists of 98% (v/v) medium, 1% (v/v) HS, and 1% (v/v) antibiotic-antimycotic, pH 7.4. TM-6 consists of 98.5% (v/v) medium, 0.5% (v/v) HS, and 1% (v/v) antibiotic-antimycotic, pH 7.4. […] Four testing media (TM#'s 1-4), each containing various concentrations of Ultraculture, were used as. […] The four Ultraculture-based testing media were: TM-1=15% (v/v) Ultraculture (Lot no. OMO455): 84% (v/v) medium: 1% (v/v) antibiotics; TM-2=15% (v/v) Ultraculture (Lot no. 1M1724): 84% (v/v) medium: 1% (v/v) antibiotics; TM-3=50% (v/v) Ultraculture (Lot no. 2M0420): 49% (v/v) medium: 1% (v/v) antibiotics; and TM-4=75% (v/v) Ultraculture (Lot no. 2M0274): 24% (v/v) medium: 1% (v/v) antibiotics. Pre-incubation for 24 hr in testing medium alone is used to wash out any potential synergistic components in the MSC-1 medium. Twenty-four hours later the testing medium is changed to one of the following. For controls, TM-1 to TM-6 alone is used. To identify clones of progenitor cells, the medium is replaced with TM-1 to TM-6 containing 2 μg/ml insulin (Sigma), an agent that accelerates the appearance of phenotypic expression markers in progenitor cells (TABLE 12). […]
# progenitor stem cells = test: Proliferation and phenotypic responses to bioactive factors: progenitor cells; format: cell-based
# Excerpt: as §1
# Cryopreserved cells are thawed and plated in MSC-1 at 5, 10, or 20×10^3 cells per well of gelatinized 24-well plates following the standard protocol. Twenty-four hours after initial plating the medium is changed to testing medium (TM) 1 to 6 (TM-1, TM-2, TM-3, TM-4, TM-5, or TM-6). TM-1 to TM-4 consist of Ultraculture (cat. no. 12-725B, lot. nos. OMO455 [TM-1], 1M1724 [TM-2], 2M0420 [TM-3], or 2M0274 [TM-4], Bio-Whittaker, Walkersville, Md.), medium (EMEM or Opti-MEM 0.01 mM β-mercaptoethanol), and 1% (v/v) antibiotic-antimycotic, pH 7.4. TM-5 consists of 98% (v/v) medium, 1% (v/v) HS, and 1% (v/v) antibiotic-antimycotic, pH 7.4. TM-6 consists of 98.5% (v/v) medium, 0.5% (v/v) HS, and 1% (v/v) antibiotic-antimycotic, pH 7.4. […] Four testing media (TM#'s 1-4), each containing various concentrations of Ultraculture, were used as. […]
# [1] = presence and approximate distribution of differentiated phenotypes within the culture wells
molecule,measurement,setting,value
B1,"Proliferation, Pluripotent: number of times the agent increased the DNA content per well versus its respective control",pluripotent stem cells,1 times
same,"activity on pluripotent and progenitor stem cells, in words",pluripotent stem cells; pluripotent and progenitor cells,no measurable effect on either progenitor or pluripotent stem cells
same,"Phenotypic Expression, Pluripotent",pluripotent stem cells; [1],0
same,"Proliferation, Progenitor: number of times the agent increased the DNA content per well versus its respective control",progenitor stem cells,1 times
same,"Phenotypic Expression, Progenitor",progenitor stem cells; [1],All+
